{"source": "patent US20260053882A1", "about": "(TRUSTEES OF PRINCETON UNIVERSITY, published 2026)", "binders": {"B1": {"name": "reconstituted SpyCatcher003 spliced from SpyN-αHER2 and SpyC-αEGFR (FLAG-αHER2-SpyCatcher003-αEGFR-Myc, NrdJ-1 splice product) (other)", "chain": "DYKDDDDKDLGKKLLEAARAGQDDEVRILMANGADVNAKDEYGLTPLYLATAHGHLEIVEVLLKNGADVNAVDAIGFTPLHLAAFIGHLEIAEVLLKHGADVNAQDKFGKTAFDISIGNGNEDLAEILQKLNGSTSGSVTTLSGLSGEQGPSGDMTTEEDSATHIKFSKRDEDGRELAGATMELRDSSGKTISTWISDGHVKDFYLYPGKYSFVETAAPDGYEVATPIEFTVNEDGQVTVDGEATEGDAHTGSTSGSDLGKKLLEAARAGQDDEVRILMANGADVNADDTWGWTPLHLAAYQGHLEIVEVLLKNGADVNAYDYIGWTPLHLAADGHLEIVEVLLKNGADVNASDYIGDTPLHLAAHNGHLEIVEVLLKHGADVNAQDKFGKTAFDISIDNGNEDLAEILQKLNEQKLISEEDL", "notes": "On cells it is held by its two DARPins on HER2 and EGFR; also called reconstituted SpyCather003; spliced SpyCatcher003"}, "B2": {"name": "reconstituted SpyCatcher003 with K31E, spliced from SpyN-αHER2(K31E) and SpyC-αEGFR (other)", "chain": "B1 chain with K169E", "notes": "K31 is counted on SpyCatcher003; ranges derived as for m26; also called defective POI; defective output"}, "B3": {"name": "SpyTag003-AF594 (His6-SpyTag003-SUMO-Cys Alexa Fluor 594 conjugate) (other)", "chain": "MGSSHHHHHHSSGLVPRGSRGVPHIVMVDAYKRYKGSGESGMSDSEVNQEAKPEVKPEVKPETHINLKVSDGSSEIFFKIKKTTPLRRLMEAFAKRQGKEMDSLRFLYDGIRIQADQTPEDLDMEDNDIIEAHREQIGC", "modifications": "Alexa Fluor 594 C5 maleimide on the C-terminal Cys", "notes": "the SUMO is internal (His6-SpyTag003-SUMO-Cys) and is not cut off; also called fluorescently labeled probe"}, "B4": {"name": "SpyTag003^D117A-AF594 (His6-SpyTag003^D117A-SUMO-Cys Alexa Fluor 594 conjugate) (other)", "chain": "B3 chain with D29A", "modifications": "Alexa Fluor 594 C5 maleimide on the C-terminal Cys"}, "B5": {"name": "SpyTag003-biotin (His6-SpyTag003-SUMO-Cys biotin conjugate) (other)", "chain": "B3 chain", "modifications": "biotin maleimide on the C-terminal Cys", "notes": "Conjugate of SpyTag003-Cys; also called biotinylated probe"}, "B6": {"name": "SpyTag003-DNP (His6-SpyTag003-SUMO-Cys dinitrophenol conjugate) (other)", "chain": "B3 chain", "modifications": "2,4-dinitrophenyl-maleimide on the C-terminal Cys", "notes": "Conjugate of SpyTag003-Cys; also called SpyTag003 2,4-dinitrolphenol conjugate; dinitrophenyl probe"}, "B7": {"name": "SpyTag003-APEX2 (His6-SpyTag003-HA-APEX2) (other)", "chain": "MGSSHHHHHHSSGLVPRGSRGVPHIVMVDAYKRYKGSGESGYPYDVPDYASSGGKSYPTVSADYQDAVEKAKKKLRGFIAEKRCAPLMLRLAFHSAGTFDKGTKTGGPFGTIKHPAELAHSANNGLDIAVRLLEPLKAEFPILSYADFYQLAGVVAVEVTGGPKVPFHPGREDKPEPPPEGRLPDPTKGSDHLRDVFGKAMGLTDQDIVALSGGHTIGAAHKERSGFEGPWTSNPLIFDNSYFTELLSGEKEGLLQLPSDKALLSDPVFRPLVDKYAADEDAFFADYAEAHQKLSELGFADA", "notes": "Not SUMO-tagged"}, "B8": {"name": "αHER2-AF594 DARPin (αHER2-HA-Cys Alexa Fluor 594 conjugate) (designed binder)", "chain": "DLGKKLLEAARAGQDDEVRILMANGADVNAKDEYGLTPLYLATAHGHLEIVEVLLKNGADVNAVDAIGFTPLHLAAFIGHLEIAEVLLKHGADVNAQDKFGKTAFDISIGNGNEDLAEILQKLNGGYPYDVPDYAGGSC", "modifications": "Alexa Fluor 594 C5 maleimide on the C-terminal Cys", "notes": "His6-SUMO tag cut off with Ulp1; range derived by counting; also called targeting DARPin labeled with AF594"}, "B9": {"name": "αEpCAM-AF594 DARPin (αEpCAM-HA-Cys Alexa Fluor 594 conjugate) (designed binder)", "chain": "DLGKKLLEAARAGQDDEVRILVANGADVNAYFGTTPLHLAAAHGRLEIVEVLLKNGADVNAQDVWGITPLHLAAYNGHLEIVEVLLKYGADVNAHDTRGWTPLHLAAINGHLEIVEVLLKNVADVNAQDRSGKTPFDLAIDNGNEDIAEVLQKAAKLNGGYPYDVPDYAGGSC", "modifications": "Alexa Fluor 594 C5 maleimide on the C-terminal Cys", "notes": "as for B8"}, "B10": {"name": "αHER2-SpyN-eNrdJ-1N^cage Cys1-alkylated (other)", "chain": "DYKDDDDKDLGKKLLEAARAGQDDEVRILMANGADVNAKDEYGLTPLYLATAHGHLEIVEVLLKNGADVNAVDAIGFTPLHLAAFIGHLEIAEVLLKHGADVNAQDKFGKTAFDISIGNGNEDLAEILQKLNGSTSGSVTTLSGLSGEQGPSGDMTTEEDSATHIKFSKRDEDGRELAGATMELRDSSGKTISTWISDGHVKDFYLYPGKYCLVGSSEIITRNYGKTTIKEVVEIFDNDKNIQVLAFNTHTDNIEWAPIKAAQLTRPNAELVELEIDTLHGVKTIRVTPDHPVYTKNRGYVRADELTDDDELVVAIENLYGDEVNGYFQGMEAETYIGKLKSRAIVSNEDTYDIQTSTHNFFAND", "modifications": "Cys1 of eNrdJ-1N^cage alkylated with iodoacetamide (residue 331 of the printed SEQ ID NO 26)", "notes": "His6-SUMO tag cut off with Ulp1; range derived by counting; also called SpyN-αHER2 with Cys1-alkylated NrdJ-1N^cage"}}, "key": {"[1]": {"molecular_target": "B3", "experiment": "in vitro splicing of the C76V FKBP/FRB precursors with rapamycin, reaction with 2 µM SpyTag003-AF594, western blot", "method": "(§1) Samples were run on an SDS-PAGE gel. […] The membrane was washed 3×5 min with TBS-T and incubated with primary antibodies at specified dilution (Table 4) on an orbital shaker for 1 hr at room temperature or alternatively overnight at 4° C. After washing 3×5 min with TBS-T, the IRDye secondary antibody or alternatively IRDye Streptavidin were applied for 30 min to 1 hour at room temperature, before imaging on a Li-Cor Odyssey imager (Li-Cor).\nSplicing was initiated either by addition of 8 μL, 50 µM rapamycin (DMSO) or 1 μL, 40×TEV protease. Buffered solution was added to compensate for volume differences when reaction components were omitted in control reactions. The reaction was left for 24 hr at 37° C. before further analysis by SDS-PAGE followed by western blotting."}, "[2]": {"molecular_target": "B3", "experiment": "flow cytometry, K562 HER2+/EGFR+ cells, SpyN-αHER2(K31E) + SpyC-αEGFR"}, "[3]": {"molecular_target": "B1", "experiment": "confocal microscopy, K562 HER2+/EGFR+ cells treated with SpyN-αHER2 and SpyC-αEGFR (eNrdJ-1^cage), 100 nM probe", "method": "Confocal microscopy of K562 cell lines treated with SMART-SpyCatcher for [HER2 AND EGFR] operation. K562^{HER2+/EGFR+} cell line were assayed for SMART-SpyCatcher activation and analyzed by confocal microscopy.\n(§2) Suspension cell lines: The K562 cell lines were cultured were individually. For an experiment, the culture of interest was spun down and counted to estimate the cell concentration. Then approximately 200,000 cells were isolated, washed twice with DPBS, 1% w/v BSA, 2 mM CaCl₂) and suspended in 0.4 mL of the buffer. To the sample was added the specified SMART-SpyCatcher at the specified concentration by adding each individual component (SpyN and SpyC) from stock solutions. The sample was incubated for 2 hr, 37° C., 5% CO₂ to allow for actuation. The sample was then cooled at room temperature for 10 min before adding the specified SpyTag003 conjugate at 100 nM. […] The cells were then washed twice with cold DPBS, 1% w/v BSA, 2 mM CaCl₂) and incubated on ice until further analysis by confocal microscopy or flow-cytometry. Samples subjected to SDS-PAGE/western blotting were washed twice with DPBS alone to remove excess BSA."}, "[4]": {"molecular_target": "B1", "experiment": "labeled mutant probe on K562 HER2+/EGFR+ cells treated with SMART-SpyCatcher, washed, AF594 signal"}, "[5]": {"molecular_target": "B1", "experiment": "western blot of K562 HER2+/EGFR+ cells treated with SMART-SpyCatcher", "method": "as §1, §2"}, "[6]": {"molecular_target": "B1", "experiment": "confocal microscopy, K562 HER2+/EGFR+ cells treated with SMART-SpyCatcher, 100 nM SpyTag003-DNP", "method": "The anti-DNP antibody was detected using a goat anti-rabbit IgG AF594 conjugate.\nSuspension cell lines: The K562 cell lines were cultured were individually. For an experiment, the culture of interest was spun down and counted to estimate the cell concentration. Then approximately 200,000 cells were isolated, washed twice with DPBS, 1% w/v BSA, 2 mM CaCl₂) and suspended in 0.4 mL of the buffer. To the sample was added the specified SMART-SpyCatcher at the specified concentration by adding each individual component (SpyN and SpyC) from stock solutions. The sample was incubated for 2 hr, 37° C., 5% CO₂ to allow for actuation. The sample was then cooled at room temperature for 10 min before adding the specified SpyTag003 conjugate at 100 nM. […] The cells were then washed twice with cold DPBS, 1% w/v BSA, 2 mM CaCl₂) and incubated on ice until further analysis by confocal microscopy or flow-cytometry."}, "[7]": {"molecular_target": "B1", "experiment": "western blot of K562 HER2+/EGFR+ cells treated with SMART-SpyCatcher and 300 nM SpyTag003-APEX2", "method": "To the sample was added the specified SMART-SpyCatcher at the specified concentration by adding each individual component (SpyN and SpyC) from stock solutions. The sample was incubated for 2 hr, 37° C., 5% CO₂ to allow for actuation. The sample was then cooled at room temperature for 10 min before adding the specified SpyTag003 conjugate at 100 nM. […] The cells were then washed twice with cold DPBS, 1% w/v BSA, 2 mM CaCl₂) and incubated on ice until further analysis by confocal microscopy or flow-cytometry. Samples subjected to SDS-PAGE/western blotting were washed twice with DPBS alone to remove excess BSA. […] Adherent cell lines: The various adherent cell lines were cultured individually. Plated cells were lifted using trypsin, washed with complete medium and counted to estimate the cell concentration. Then 200,000 cells were seeded in a 24 well plate format and allowed 24 hr recovery and attachment in complete media. The assay protocol for SMART-SpyCatcher actuation and SpyTag003 recruitment follows that outlined above for the suspension cell lines. Post-treatment, the adherent cells were washed twice with DPBS, 1% w/v BSA, 2 mM CaCl₂) and then lifted with a non-enzymatic solution of DPBS, 1% w/v BSA, 50 mM EDTA and incubated on ice before analysis by flow-cytometry. For SDS-PAGE/western blotting cells were lifted as described and then washed with DPBS alone to remove excess BSA. […]"}, "[8]": {"molecular_target": "T1, HER2, endogenous on human cell lines (human, UniProt P04626 23-1255)", "T1 construct": "whole, on cells", "experiment": "flow cytometry, 100 nM DARPin-AF594 on human cancer cell lines"}, "[9]": {"molecular_target": "T2, Epithelial Cell Adhesion Molecule (EpCAM), endogenous on human cell lines (human, UniProt P16422 24-314)", "T2 construct": "whole, on cells", "T2 sequence (looked up)": "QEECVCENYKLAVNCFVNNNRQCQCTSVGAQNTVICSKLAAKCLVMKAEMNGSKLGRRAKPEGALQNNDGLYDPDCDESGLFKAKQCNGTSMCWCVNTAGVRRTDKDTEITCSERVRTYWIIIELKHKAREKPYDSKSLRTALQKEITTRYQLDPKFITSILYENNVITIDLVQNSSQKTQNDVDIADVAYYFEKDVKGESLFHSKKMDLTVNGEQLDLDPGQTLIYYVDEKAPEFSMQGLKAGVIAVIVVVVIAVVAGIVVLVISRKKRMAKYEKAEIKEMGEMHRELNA", "experiment": "flow cytometry, 100 nM DARPin-AF594 on human cancer cell lines"}, "[10]": {"molecular_target": "B3", "experiment": "confocal microscopy, K562 HER2+/EGFR+ cells; splicing-dead SpyN-αHER2 together with SpyC-αEGFR"}}, "note": "Positions count from the first letter of the chain named. In names and notes the source's numbering stands.", "data": [{"binder": "B1", "values": [{"measurement": "binding result", "setting": "[1]", "value": "binds"}]}, {"binder": "B2", "values": [{"measurement": "binding result", "setting": "[2]", "value": "no binding (tested: 100 nM)"}]}, {"binder": "B3", "values": [{"measurement": "binding result", "setting": "[3]", "value": "binds"}]}, {"binder": "B4", "values": [{"measurement": "binding result", "setting": "[4]", "value": "no binding (tested: 100 nM)"}]}, {"binder": "B5", "values": [{"measurement": "binding result", "setting": "[5]", "value": "binds"}]}, {"binder": "B6", "values": [{"measurement": "binding result", "setting": "[6]", "value": "binds"}]}, {"binder": "B7", "values": [{"measurement": "binding result", "setting": "[7]", "value": "binds"}]}, {"binder": "B8", "values": [{"measurement": "binding result", "setting": "[8]", "value": "binds"}]}, {"binder": "B9", "values": [{"measurement": "binding result", "setting": "[9]", "value": "binds"}]}, {"binder": "B10", "values": [{"measurement": "binding result", "setting": "[10]", "value": "no binding (tested: 100 nM)"}]}]}
